In article PMC7432781, “An EPR Study on the Interaction between the Cu(I) Metal Binding Domains of ATP7B and the Atox1 Metallochaperone” (International Journal of Molecular Sciences, 2020):
*: point of attachment. MTSL = MTSL nitroxide spin label (R1), CC1(C)C=C(CS*)C(C)(C)N1[O]

T1: ATP7B metal binding domains 4-6, spin-labeled (human, UniProt P35670 356-633, MTSL nitroxide spin label (R1) on C358, C431 and C490)
T1 construct: No residue limits are printed; the printed primers translate to a start at GTCSTTL and an end at FHASLAQ followed by a stop codon; Printed mass 29.2 kDa; also called MBD4-6; ATP7B 4-6 domains; source: E. coli Origami 2, purified (chitin bead column, intein self-cleavage with DTT)
T1 sequence (looked up): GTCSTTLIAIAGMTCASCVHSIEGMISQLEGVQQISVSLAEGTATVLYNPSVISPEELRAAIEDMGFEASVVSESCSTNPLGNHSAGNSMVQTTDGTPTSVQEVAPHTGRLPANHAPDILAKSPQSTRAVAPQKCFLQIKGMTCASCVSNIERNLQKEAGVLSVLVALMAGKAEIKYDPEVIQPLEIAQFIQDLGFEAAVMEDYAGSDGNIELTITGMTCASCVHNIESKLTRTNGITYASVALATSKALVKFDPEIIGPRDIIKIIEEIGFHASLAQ

B1: Atox1 metallochaperone, wild-type, non spin-labeled (natural protein, human)
chain: MPKHEFSVDMTCGGCAEAVSRVLNKLGGVKYDIDLPNKKVCIESEHSMDTLLATLKKTGKTVSYLGLE
notes: Atox1 copper metallochaperone, human, wild type
B2: Atox1 metallochaperone, spin-labeled at C41 (natural protein, human)
chain: MPKHEFSVDMTCGGCAEAVSRVLNKLGGVKYDIDLPNKKVC(MTSL)IESEHSMDTLLATLKKTGKTVSYLGLE
notes: Atox1 copper metallochaperone, human; also called sl-Atox1; spin-labeled Atox1

Biological target: T1, ATP7B metal binding domains 4-6, …
Test: CW-EPR of spin-labeled proteins; X-band, room temperature (292 ± 5 K), in solution; Atox1 or sl-Atox1 added to spin-labeled MBDs at 1:1 (Atox1:MBD); with and without Cu(I); spin-labeled protein 0.01-0.03 mM
Conditions: both partners purified

Row | Binder | binding result
1 | B1 | binds
2 | B2 | binds
